In patent US11898183B2, “Programmed microorganisms to attenuate a disease” (priority 2020, dated 2024):

System: pathway specific substrates
Experiment: Enzyme functionality of pathway enzyme homologs and fusion constructs in lysed E. coli cell extracts, product by HPLC
Type: biochemical, E. coli BL21
Details: recombinant E. coli BL21 clone, lysed cell extract
Method in brief: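 Enzymes and fusion constructs were expressed in E. coli BL21 (pET28, T7 promoter) with 0.1 mM IPTG at 30 °C for ~20 h in M9 medium. Cleared freeze-thaw lysates were incubated with pathway-specific substrates. Products were quantified by HPLC relative to empty-plasmid lysates.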

B1: CYP719 Coptis japonica (protein, UniProt Q948Y1 1-491, looked up)
(S)-canadine synthase: MEMNPLLVCATVAIVFATTTIIRILFSSSSLPQMKWPSGPRKLPIIGNLHQLGDDVLHVALAKLAKVHGSVMTIWIGSWRPVIVISDIEKAWEVLVNKSADYGARDMPEITKIASASWHTISTSDAGSFWQNVRKGLQSGAMGPLNVAAQNQYQERDMKRLIKAMSDEAANNNGIVKPLDHIKKNTVRLLTRLIFGQAFDDNKFIESMHYEIEDIIRISGYARLAEAFYYAKYLPSHKKAEREAFLVKCRVEELVRPLLSSKPPTNSYLYFLLSQNFEEEVIIFCIFELYLLGVDSTSSTTTWALAYLIREQGAQEKLYQDIRMTLGDVDLVKIEDVNKLKYLQGVVKETMRMKPIAPLAIPHKTAKETTLMGTKVAKGTRIMVNLYALHHNQNIWPDPYKFMPERFLEGETGTAYNKAMEQSFLPFSAGMRICAGMDLGKLQFAFALANLVNAFKWSCVEEGKLPDMGEELSFVLLMKTPLEARIAGRNV
- Enzyme activity in terms of product formation (in %) (substrate tested: Matairesinol): 0%

B2: CYP71 (SEQ ID NO: 32) Cinnamomum micranthum (protein)
chain: MALLLSLLFFASALIFLLKLNGQRANKTDVPPSPPKLPLIGNLHQLGTLPHRSLRSLAGKYGPLMLLYLGRIPTLIVSSEEMAEQIMKTHDLIFASRPSITAAKELLYGCTDLAFASYGEYWRQVRKMCVLELLSIKRVNSFRSIMEEEVGLMIERISQSSSTGAAVNLAELFLSLTGGTIARAALGKKYEGEAEEGRNKYADLVKELHALLGAFSVGDYFPSLAWVDVVTGLHGKLKRNSRELDRFLDQVIEHHLMRPLDGCDVGEHTDLVDVMLQVQKDSNRDIHLTRDNIKAIILDMFSAGTDTTALTLEWVMAELAKHPNVMKKAQGEVRRVVDVKANISEEHLCQLNYMKSIIKETLRLHPPAPLLVPRESTTNVKIQNFHIPPKTRVFINAYAIGRDPTSWENPEEFLPERFANNSVDFKGQDFQFIPFGAGRRGCPGLSFAITSLELALANLLYWFDWELPQGVTEEDLDMSEALGITVHKKLPLYLVPKNHFS
modifications: Depicts the amino sequence of CYP71 of Cinnamomum micranthum
- Enzyme activity in terms of product formation (in %) (substrate tested: Bursehernin): 94%

B3: CYP719 (SEQ ID NO: 26) Cinnamomum micranthum (protein)
chain: MEAIWTAVAIGIAAAVLMAFRGRQRQRLSRKPTQWPPGPTRLPLIGNMHQILLKGGDPFHVAINKLAQVYGPLMTVWFGTRQPTIIVSDHNLVWEVLVSKSADYAAREIPITLKPSLADFRTIVSSNAGPLWHSLRRGLQNGAIGPHSLSLQAPFQESDMAQMINNMIKEANLNGGVVKPFPHIRRAIIKLLARICFGCDFSDEEFDATMDFMVEEALRYSDDSRILDTFPPARFLPSVKRAVMQMEKVKLRLMECIGRPLDSPLPPTCYAHFLLSQSFPREVAIFSIFELFLLGVDSTGSTTMWGLGLLMQNQEAQQKLYQEIREHASCNEKGVVKVEELGKLEYLQAVAKETMRMKPIAPLAVPHQAARDTTLDGLHVAEGTTVLANLYALHYDPKVWDEPERFKPERFLESSKEFLGKRGQYSFLPFGAGMRACAGMEVGKLQLPFAICNLVNAFNWSNVVEKEAPKLIEGFSFILSMKTPLEARIVPRGI
modifications: Depicts the amino acid sequence of CYP719 of Cinnamomum micranthum
- Enzyme activity in terms of product formation (in %) (substrate tested: Matairesinol): 97%

B4: Bifunctional pinoresinol-lariciresinol reductase (DIRPLR) (SEQ ID NO: 20) Linum usitatissimum (protein, listed as Linum usitatissimum)
chain: MGRCRVLVVGGTGYIGKRIVKASIEHGHDTYVLKRPETGLDIEKFQLLLSFKKQGAHLVEASFSDHESLVRAVKLVDVVICTVSGAHSRSLLLQLKLVEAIKEAGNVKRFIPSEFGMDPARMGDALEPGRETFDLKMVVRKAIEDANIPHTYISANCFGGYFVGNLSQLGPLTPPSDKVTIYGDGNVKVVYMDEDDVATYTIMTIEDDRTLNKTMYFRPPENVITHRQLVETWEKLSGNQLQKTELSSQDFLALMEGKDVAEQIVIGHLYHIYYEGCLTNFDIDADQDQVEASSLYPEVEYTRMKDYLMIYL
- Enzyme activity in terms of product formation (in %) (substrate tested: Coniferyl alcohol): 98%

B5: O-methyltransferase 3 (OMT) (SEQ ID NO: 28) Papaver somniferum (protein, listed as Papaver somniferum)
chain: MEVVSKIDQENQAKIWKQIFGFAESLVLKCAVQLEIAETLHNNVKPMSLSELASKLPAQPVNEDRLYRILHFLVHMKLFNKDATTQKYSLAPPAKYLLKGWEKSMVPSILSVTDKDFTAPWNHLGDGLTGNCNAFEKALGKGIRVYMRENPEKDQLFNEGMACDTRLFASALVNECKSIFSDGINTLAGVGRGTGTAVKAISKAFPDIKCTIHDLPEVTSKNSKIPRDVFKSVPSADAIFMKSILHEWNDEECIQILKRCKEAIPKGGKVIIADVVIDMDSTHPYSKSRLAMDLAMMLHTGGKERTEEDWKKLIDAAGFASCKITKLSALQSVIEAYPH
- Enzyme activity in terms of product formation (in %) (substrate tested: Pluviatolide): 88%

B6: O-methyltransferase 3 (OMT) (SEQ ID NO: 30) Sinopodophyllum hexandrum (protein)
chain: MEMAPTMDLEIRNGNGYGDSGEELLAAQAHIYNHIFNFISSMALKCAVELNIPEILHNHQPKAVTLSELVQALQIPQAKSACLYRLLRILVHSGFFAITKIQSEGDEEGYLPTLSSKLLLKNHPMSMSPCLLGLVNPTMVAPMHFFSDWFKRSDDMTPFEATHGASLWKYFGETPHMAEIFNEAMGCETRLAMSVVLKECKGKLEGISSLVDVGGGTGNVGRAIAEAFPNVKCTVLDLPQVVGNLKGSNNLEFVSGDMFQFIPPADVVFLKWILHDWNDEECIKILKRCKEAIPSKEEGGKLIIIDMVVNDHNKGSYESTETQLFYDLTLMALLTGTERTETEWKKLFVAAGFTSYIISPVLGLKSIIEVFP
modifications: Depcits amino acid sequence of O-methyltransferase 3 (OMT) of Sinopodophyllum hexandrum
- Enzyme activity in terms of product formation (in %) (substrate tested: Pluviatolide): 99%

B7: Secoisolariciresinol dehydrogenase (SDH) (SEQ ID NO: 22) Juglans regia (protein, listed as Juglans regia)
chain: MNGTSSLLAPIAKRLAGKVALITGGASGIGESTARLFAEQGAKVIIADVQDELGFSVSQDKSINGAISYIHCDVTSESDVQNAVNTAVSKHGKLDIMFNTAGCTGQNKASILDHEQKDYKTVFDVNVLGSFLGAKHAAKVMIPVKRGTILFTASCVTESHGLASHSYTASKHAVVGLTKNLCVELGQYGIRVNCISPYGAATPLFLKGMGIDKKEKAEEILSSAANLKGPVLEAGDLAEAALFLASEESKYVSVLNLVVDGGYSATNVAFTETIQKFFT
- Enzyme activity in terms of product formation (in %) (substrate tested: Secoisolariciresinol): 99%

B8: CYP719 (SEQ ID NO: 24) Papaver somniferum (protein, listed as Papaver somniferum)
chain: MIMSNLWILTLISTILAVFAAVLIIFRRRISASTTEWPVGPKTLPIIGNLHILGGTALHVVLHKLAEVYGSVMTIWIGSWKPVIIVSDFDRAWEVLVNKSSDYSAREMPEITKIGTANWRTISSSDSGPFWATLRKGLQSVALSPQHLASQTAHQERDIIKLIKNLKDEAASGMVKPLDHLKKATVRLISRLIYGQDFDDDKYVEDMHDVIEFLIRISGYAQLAEVFYYAKYLPGHKRAVTGAEEAKRRVIALVRPFLQSNPATNTYLHFLKSQLYPEEVIIFAIFEAYLLGVDSTSSTTAWALAFLIREPSVQEKLYQELKNFTANNNRTMLKVEDVNKLPYLQAVVKETMRMKPIAPLAIPHKACKDTSLMGKKVDKGTKVMVNIHALHHTEKVWKEPYKFIPERFLQKHDKAMEQSLLPFSAGMRICAGMELGKLQFSFSLANLVNAFKWSCVSDGVLPDMSDLLGFVLFMKTPLEARIVPRL
- Enzyme activity in terms of product formation (in %) (substrate tested: Matairesinol): 76%
